Measured values from patent US20110142849A1 (IRM, published 2011).

Legend:
Experiment in all cases: specificity ELISA on coated antigen (88 ng per well), antibody at 2 µg/mL, ABS650
hDDR1 = target: T1, hDDR1 (human, UniProt Q08345)
T1 construct: panel antigen of the specificity ELISA
Procedure: (§1) For specificity ELISAs on purified human and mouse IgGs, a 384-well plate was coated with a panel of purified human or mouse antigens at 88 ng per well and incubated overnight at 4° C. The plate was blocked and washed as described above, then 22 μL of purified mouse or human anti-PCSK9 antibody diluted to 2 μg/mL in PBS was added to each well. The plate was incubated for 1 hr at 37° C. then washed with PBST. Anti-mouse Fc antibody (Jackson ImmunoResearch Labs #115-035-071) or anti-human kappa antibody (Sigma #A7164) conjugated to HRP was diluted 1:5000 in PBS (25 μL) and added to each well. The plate was incubated for 1 hr at room temperature, then washed and developed as described above.
(§2) In order to test whether the antigen specificity of the parental mouse antibody LFU720 was retained in the final Humaneered™ IgGs, LGT209, LGT210 and LGT211, binding of the antibodies to a panel of human and mouse antigens (as well as human PCSK9) was tested in an ELISA assay.

hIL-12RB1 = target: T2, hIL-12RB1 (human, UniProt P42701)
T2 construct: panel antigen of the specificity ELISA
Procedure: as §1, §2

hFGFR4 = target: T3, hFGFR4 (human, UniProt P22455)
T3 construct: panel antigen of the specificity ELISA
T3 sequence (antigen, looked up): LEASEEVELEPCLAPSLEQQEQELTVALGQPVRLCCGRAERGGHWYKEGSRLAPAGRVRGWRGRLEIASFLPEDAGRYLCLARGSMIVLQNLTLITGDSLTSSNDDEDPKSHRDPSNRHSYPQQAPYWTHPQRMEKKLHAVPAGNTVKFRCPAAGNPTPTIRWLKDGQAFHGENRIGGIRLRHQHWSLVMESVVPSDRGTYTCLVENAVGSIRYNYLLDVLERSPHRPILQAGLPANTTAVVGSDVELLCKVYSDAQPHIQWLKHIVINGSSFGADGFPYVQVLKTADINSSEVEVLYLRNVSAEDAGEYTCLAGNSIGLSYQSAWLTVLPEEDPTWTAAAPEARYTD
Procedure: as §1, §2

hβ-Klotho = target: T4, hβ-Klotho (human, UniProt Q86Z14)
T4 construct: panel antigen of the specificity ELISA
T4 sequence (antigen, looked up): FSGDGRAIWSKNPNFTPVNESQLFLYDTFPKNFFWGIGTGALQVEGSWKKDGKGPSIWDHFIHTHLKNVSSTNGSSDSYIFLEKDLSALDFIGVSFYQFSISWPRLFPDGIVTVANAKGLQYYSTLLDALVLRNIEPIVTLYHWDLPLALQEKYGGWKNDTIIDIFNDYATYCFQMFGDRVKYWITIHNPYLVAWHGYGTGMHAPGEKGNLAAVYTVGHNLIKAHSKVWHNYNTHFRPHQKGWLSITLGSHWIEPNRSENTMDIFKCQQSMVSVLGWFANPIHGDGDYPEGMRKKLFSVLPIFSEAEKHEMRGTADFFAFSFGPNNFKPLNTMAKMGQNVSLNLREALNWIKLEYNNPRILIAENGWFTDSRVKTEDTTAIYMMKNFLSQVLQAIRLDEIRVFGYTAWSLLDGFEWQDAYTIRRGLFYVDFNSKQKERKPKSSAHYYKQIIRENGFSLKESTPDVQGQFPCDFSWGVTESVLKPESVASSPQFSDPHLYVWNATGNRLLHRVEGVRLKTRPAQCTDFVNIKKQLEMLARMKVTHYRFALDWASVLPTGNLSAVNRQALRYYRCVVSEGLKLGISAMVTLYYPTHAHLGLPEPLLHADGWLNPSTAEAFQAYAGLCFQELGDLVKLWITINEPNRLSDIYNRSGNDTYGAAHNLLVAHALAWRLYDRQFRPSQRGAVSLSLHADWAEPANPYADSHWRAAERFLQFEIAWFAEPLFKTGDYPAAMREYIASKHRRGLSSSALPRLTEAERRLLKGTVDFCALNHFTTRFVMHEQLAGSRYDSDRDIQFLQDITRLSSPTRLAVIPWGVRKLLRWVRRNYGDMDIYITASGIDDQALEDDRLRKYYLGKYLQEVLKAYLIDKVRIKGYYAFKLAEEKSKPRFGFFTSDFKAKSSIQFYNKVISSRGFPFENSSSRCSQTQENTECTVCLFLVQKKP
Procedure: as §1, §2

hRspo-2 = target: T5, hRspo-2 (human, UniProt Q6UXX9)
T5 construct: panel antigen of the specificity ELISA
Procedure: as §1, §2

hTrkB = target: T6, hTrkB (human, UniProt Q16620)
T6 construct: panel antigen of the specificity ELISA
Procedure: as §1, §2

hGITR = target: T7, hGITR (human, UniProt Q9Y5U5)
T7 construct: panel antigen of the specificity ELISA
T7 sequence (antigen, looked up): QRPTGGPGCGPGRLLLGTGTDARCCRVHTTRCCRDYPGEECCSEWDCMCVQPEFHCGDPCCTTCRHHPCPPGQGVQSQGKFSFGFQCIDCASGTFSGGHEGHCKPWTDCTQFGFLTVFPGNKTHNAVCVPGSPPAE
Procedure: as §1, §2

hNotch-3 NRR = target: T8, hNotch-3 NRR (human, UniProt Q9UM47)
T8 construct: panel antigen of the specificity ELISA
T8 sequence (antigen, looked up): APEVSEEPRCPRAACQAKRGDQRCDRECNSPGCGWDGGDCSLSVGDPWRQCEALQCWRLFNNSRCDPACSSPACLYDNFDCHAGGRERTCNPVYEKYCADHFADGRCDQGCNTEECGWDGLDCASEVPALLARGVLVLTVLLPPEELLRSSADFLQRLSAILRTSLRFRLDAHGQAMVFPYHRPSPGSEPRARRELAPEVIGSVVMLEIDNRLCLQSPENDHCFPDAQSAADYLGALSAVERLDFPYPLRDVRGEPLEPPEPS
Procedure: as §1, §2

Measured: binding result

T5 sequence (Q6UXX9 22-243 limits assumed): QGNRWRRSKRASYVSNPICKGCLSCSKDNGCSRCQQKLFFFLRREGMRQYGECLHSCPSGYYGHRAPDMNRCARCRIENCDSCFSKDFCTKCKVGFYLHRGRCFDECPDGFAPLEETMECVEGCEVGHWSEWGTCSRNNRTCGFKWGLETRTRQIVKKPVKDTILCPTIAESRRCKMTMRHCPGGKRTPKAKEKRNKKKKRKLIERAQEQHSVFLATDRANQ
T1 sequence (Q08345 21-416 limits assumed): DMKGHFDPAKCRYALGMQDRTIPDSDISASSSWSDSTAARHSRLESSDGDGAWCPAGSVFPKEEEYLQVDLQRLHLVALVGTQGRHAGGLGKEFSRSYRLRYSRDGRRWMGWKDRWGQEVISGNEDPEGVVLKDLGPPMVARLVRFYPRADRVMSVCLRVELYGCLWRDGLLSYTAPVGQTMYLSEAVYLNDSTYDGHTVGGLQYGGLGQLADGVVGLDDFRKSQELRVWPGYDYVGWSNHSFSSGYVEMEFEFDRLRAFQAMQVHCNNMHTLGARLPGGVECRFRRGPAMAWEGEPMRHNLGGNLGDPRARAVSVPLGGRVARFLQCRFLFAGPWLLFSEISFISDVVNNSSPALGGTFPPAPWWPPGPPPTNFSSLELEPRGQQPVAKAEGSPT
T6 sequence (Q16620 32-430 limits assumed): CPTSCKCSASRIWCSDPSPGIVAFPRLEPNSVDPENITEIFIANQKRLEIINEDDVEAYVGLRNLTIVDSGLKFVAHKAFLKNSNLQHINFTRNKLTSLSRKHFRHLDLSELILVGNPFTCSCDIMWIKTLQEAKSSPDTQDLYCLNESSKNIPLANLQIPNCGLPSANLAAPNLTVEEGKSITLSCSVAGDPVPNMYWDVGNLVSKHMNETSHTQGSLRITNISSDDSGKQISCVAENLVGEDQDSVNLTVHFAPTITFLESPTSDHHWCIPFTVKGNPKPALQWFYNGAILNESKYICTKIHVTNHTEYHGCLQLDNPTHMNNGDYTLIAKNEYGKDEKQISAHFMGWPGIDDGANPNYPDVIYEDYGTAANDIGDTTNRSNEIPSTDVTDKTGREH

B1: NVP-LGT211 (antibody, human IgG1, V domains shown)
VH: QVQLVQSGAEVKKPGASVKVSCKASGYTFSTMYMSWVRQAPGQGLEWMGRIDPANEHTNYAQKFQGRVTMTRDTSISTAYMELSRLTSDDTAVYYCARSYYYYAMDYWGQGTLVTVSS
VL: QIVLTQSPATLSVSPGERATLSCRASQSVSYMHWYQQKPGQAPRLLIYGVFRRATGIPDRFSGSGSGTDFTLTIGRLEPEDFAVYYCLQWSSDPPTFGQGTKLEIKR
notes: Silent human IgG1 kappa; also called pSR74 (Vh) + pJG10 (Vk); pSR074 + pJG10
no binding (tested: 2 µg/mL): all assays above

B2: NVP-LFU720 (antibody, V domains shown)
VH: EVQLQQSGAELMKPGASVKLSCTASGFNIKDMYMSWVRQRPEQGLEWIGRIDPANGHTNYDPKFQAKATITTDTSSKTAYLHLSSLTSEDTAVYYCARSYYYYAMDYWGQGTSVTVSS
VL: QIVLTQSPAIMSASPGEKVTMTCSASSSVSYMHWYQQKPGSSPRLWIYLTFNLASGVPARFSGSGSGTSYSLSISSMEAEDAATYYCLQWSSDPPTFGSGTKLEIK
notes: Murine anti-human Pcsk9 IgG1-kappa monoclonal antibody from a hybridoma; also called 5P20; NVP-LFU720-AX-1
no binding (tested: 2 µg/mL): all assays above
